2 molecules from patent US20140162945A1 (BEIJING HANMI PHARMACEUTICAL, published 2014) can be followed below.

Common to all, as to assay: cell-based or functional assay
In assay [1] the target is T1, human GLP-1 receptor (human, UniProt P43220 24-463).
The target in assay [2] is T2, human GIP receptor (human, UniProt P48546 22-466).
T2 sequence (looked up): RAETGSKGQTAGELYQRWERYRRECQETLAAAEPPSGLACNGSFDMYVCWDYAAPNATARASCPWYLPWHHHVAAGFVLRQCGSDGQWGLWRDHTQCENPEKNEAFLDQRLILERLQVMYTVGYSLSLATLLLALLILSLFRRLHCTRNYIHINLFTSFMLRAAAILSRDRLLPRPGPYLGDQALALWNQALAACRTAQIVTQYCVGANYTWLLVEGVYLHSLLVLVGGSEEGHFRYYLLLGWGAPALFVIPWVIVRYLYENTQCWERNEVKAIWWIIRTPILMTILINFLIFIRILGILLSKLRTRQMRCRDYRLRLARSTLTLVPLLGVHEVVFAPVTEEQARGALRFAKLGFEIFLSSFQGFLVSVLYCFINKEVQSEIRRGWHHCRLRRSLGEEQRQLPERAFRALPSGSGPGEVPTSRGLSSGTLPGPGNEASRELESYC

The target in assay [3] is T1, human GLP-1 receptor. This is another data set of the same source.
For assay [4], the target named is T2, human GIP receptor. The source holds these as a separate data set.

Where no end group is shown, it is not given here. [ ]: non-standard residue; d: D form. Aib = CC(C)(N)C(=O)O

T1 sequence (P43220 24-463): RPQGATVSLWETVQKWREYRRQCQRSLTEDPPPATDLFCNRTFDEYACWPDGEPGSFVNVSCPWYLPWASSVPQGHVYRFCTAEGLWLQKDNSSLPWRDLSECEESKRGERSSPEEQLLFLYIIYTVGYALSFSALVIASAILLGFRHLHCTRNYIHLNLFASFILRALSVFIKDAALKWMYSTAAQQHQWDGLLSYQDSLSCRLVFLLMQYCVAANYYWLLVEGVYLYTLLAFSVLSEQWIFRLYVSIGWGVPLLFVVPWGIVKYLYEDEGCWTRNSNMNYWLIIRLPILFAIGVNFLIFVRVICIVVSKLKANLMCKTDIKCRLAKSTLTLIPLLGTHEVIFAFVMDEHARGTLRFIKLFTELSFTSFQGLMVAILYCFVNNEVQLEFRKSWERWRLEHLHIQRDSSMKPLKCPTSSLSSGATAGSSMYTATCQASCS

B1: Analog 023 (peptide)
peptide: Y[Aib]EGTFTSDYSIYMEKEAVREFIAWLVKG-NH2
modifications: N-terminus assumed
SMILES: CC[C@H](C)[C@H](NC(=O)[C@H](Cc1ccccc1)NC(=O)[C@H](CCC(=O)O)NC(=O)[C@H](CCCNC(=N)N)NC(=O)[C@@H](NC(=O)[C@H](C)NC(=O)[C@H](CCC(=O)O)NC(=O)[C@H](CCCCN)NC(=O)[C@H](CCC(=O)O)NC(=O)[C@H](CCSC)NC(=O)[C@H](Cc1ccc(O)cc1)NC(=O)[C@@H](NC(=O)[C@H](CO)NC(=O)[C@H](Cc1ccc(O)cc1)NC(=O)[C@H](CC(=O)O)NC(=O)[C@H](CO)NC(=O)[C@@H](NC(=O)[C@H](Cc1ccccc1)NC(=O)[C@@H](NC(=O)CNC(=O)[C@H](CCC(=O)O)NC(=O)C(C)(C)NC(=O)[C@@H](N)Cc1ccc(O)cc1)[C@@H](C)O)[C@@H](C)O)[C@@H](C)CC)C(C)C)C(=O)N[C@@H](C)C(=O)N[C@@H](Cc1c[nH]c2ccccc12)C(=O)N[C@@H](CC(C)C)C(=O)N[C@H](C(=O)N[C@@H](CCCCN)C(=O)NCC(N)=O)C(C)C
Consider B1, for which the “EC50, GLP-1R cAMP induction” value with human GLP-1 receptor [1] stood at 1.28 nM. For the same molecule, the “EC50, GIPR cAMP induction” value with human GIP receptor [2] came out at 0.088 nM. Moreover, in the assay with human GLP-1 receptor [3], the “EC50, GLP-1 Receptor cAMP induction” value is 1.28 nM and the “Relative Potency, GLP-1 Receptor” value worked out at 75%. Besides, in the assay with human GIP receptor [4], the “EC50, GIP Receptor cAMP induction” value was determined as 0.088 nM and the “Relative Potency, GIP Receptor” value worked out at 107%.

B2: Analog 025 (peptide)
peptide: Y[Aib]EGTFTSDYSIYMEKQAAKEFIAWLVKG-NH2
modifications: N-terminus assumed
SMILES: CC[C@H](C)[C@H](NC(=O)[C@H](Cc1ccccc1)NC(=O)[C@H](CCC(=O)O)NC(=O)[C@H](CCCCN)NC(=O)[C@H](C)NC(=O)[C@H](C)NC(=O)[C@H](CCC(N)=O)NC(=O)[C@H](CCCCN)NC(=O)[C@H](CCC(=O)O)NC(=O)[C@H](CCSC)NC(=O)[C@H](Cc1ccc(O)cc1)NC(=O)[C@@H](NC(=O)[C@H](CO)NC(=O)[C@H](Cc1ccc(O)cc1)NC(=O)[C@H](CC(=O)O)NC(=O)[C@H](CO)NC(=O)[C@@H](NC(=O)[C@H](Cc1ccccc1)NC(=O)[C@@H](NC(=O)CNC(=O)[C@H](CCC(=O)O)NC(=O)C(C)(C)NC(=O)[C@@H](N)Cc1ccc(O)cc1)[C@@H](C)O)[C@@H](C)O)[C@@H](C)CC)C(=O)N[C@@H](C)C(=O)N[C@@H](Cc1c[nH]c2ccccc12)C(=O)N[C@@H](CC(C)C)C(=O)N[C@H](C(=O)N[C@@H](CCCCN)C(=O)NCC(N)=O)C(C)C
Consider B2, for which the “EC50, GLP-1R cAMP induction” value with human GLP-1 receptor [1] was found to be 0.837 nM. In addition, the “EC50, GIPR cAMP induction” value with human GIP receptor [2] was determined as 1.5 nM. In the assay with human GLP-1 receptor [3], the “EC50, GLP-1 Receptor cAMP induction” value stood at 0.837 nM and the “Relative Potency, GLP-1 Receptor” value came out at 131%. In the assay with human GIP receptor [4], the “EC50, GIP Receptor cAMP induction” value is 1.5 nM and the “Relative Potency, GIP Receptor” value came to 33.3%.
